Consider four molecules from patent publication US20110263827A1 (AbbVie / Abbott, published 2011).

Assay [1] has as its target T1, RON (UniProt Q04912 25-571, biotinylated). Put plainly: direct bind ELISA, C-term VD.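 Further: ELISA with antibody or DVD-Ig preparations applied to target antigen-coated plates for 1 h at room temperature, TMB colour development, absorbance read at 450 nm.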 For orientation: ELISA stands for enzyme-linked immunosorbent assay.
Assay [2] has as its target T2, EGFR (UniProt P00533 25-645, limits assumed, biotinylated).
T2 construct: ELISA antigen; construct not described
In words: direct bind ELISA, N-term VD.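 Further: antibody or DVD-Ig preparations bound to immobilized target antigen on ELISA plates, 1 h at room temperature, TMB detection read as absorbance at 450 nm.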

Assay [3] has as its target T2, EGFR. In words: direct bind ELISA, C-term VD.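 Further: ELISA with antibody or DVD-Ig preparations applied to target antigen-coated plates for 1 h at room temperature, TMB colour development, absorbance read at 450 nm.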
For assay [4], the target named is T1, RON. In words: direct bind ELISA, N-term VD.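 Further: antibody or DVD-Ig preparations bound to immobilized target antigen on ELISA plates, 1 h at room temperature, TMB detection read as absorbance at 450 nm.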

B1: DVD325 (bispecific antibody)
VH: QVQLQESGPGLVKPSQTLSLTCTVSGYSISSDFAWNWIRQPPGKGLEWMGYISYSGNTRYQPSLKSRITISRDTSKNQFFLKLNSVTAADTATYYCVTAGRGFPYWGQGTLVTVSSASTKGPEVQLVQSGGGLVKPGGSLRLSCAASGFTFSSYAMHWVRQAPGKGLEWVAVISYDGSNKYYADSVKGRFTISRDNSKNTLYLQMNSLRAEDTAVYYCARFSGWPNNYYYYGMDVWGQGTTVTVSS
VL: DIQMTQSPSSMSVSVGDRVTITCHSSQDINSNIGWLQQKPGKSFKGLIYHGTNLDDGVPSRFSGSGSGTDYTLTISSLQPEDFATYYCVQYAQFPWTFGGGTKLEIKRTVAAPDVVMTQSPLSLPVTPGEPASISCRSSQSLLHSNGFNYVDWYLQKPGQSPHLLIYFGSYRASGVPDRFSGSGSGTDFTLKISRVEAEDVGVYYCMQALQTPPWTFGQGTKVEIRR
notes: DVD-Ig; HC S, LC S; variable parts only
Turning to B1, the EC50 with RON [1] was 25 nM; with EGFR [2] it was 5.96 nM.

B2: DVD827 (bispecific antibody)
VH: QVQLQESGPGLVKPSQTLSLTCTVSGYSISSDFAWNWIRQPPGKGLEWMGYISYSGNTRYQPSLKSRITISRDTSKNQFFLKLNSVTAADTATYYCVTAGRGFPYWGQGTLVTVSSASTKGPEVQLVQSGGGLVKPGGSLRLSCAASGFTFSSYAMHWVRQAPGKGLEWVAVISYDGSNKYYADSVKGRFTISRDNSKNTLYLQMNSLRAEDTAVYYCARFSGWPNNYYYYGMDVWGQGTTVTVSS
VL: DIQMTQSPSSMSVSVGDRVTITCHSSQDINSNIGWLQQKPGKSFKGLIYHGTNLDDGVPSRFSGSGSGTDYTLTISSLQPEDFATYYCVQYAQFPWTFGGGTKLEIKRTVAAPSVFIFPPDVVMTQSPLSLPVTPGEPASISCRSSQSLLHSNGFNYVDWYLQKPGQSPHLLIYFGSYRASGVPDRFSGSGSGTDFTLKISRVEAEDVGVYYCMQALQTPPWTFGQGTKVEIRR
notes: DVD-Ig; HC S, LC L; variable parts only
Take B2: the EC50 in the assay with RON [1] came out at 6.57 nM; with EGFR [2], 6.28 nM.

B3: DVD797 (bispecific antibody)
VH: QVQLQESGPGLVKPSQTLSLTCTVSGYSISSDFAWNWIRQPPGKGLEWMGYISYSGNTRYQPSLKSRITISRDTSKNQFFLKLNSVTAADTATYYCVTAGRGFPYWGQGTLVTVSSASTKGPSVFPLAPEVQLVQSGGGLVKPGGSLRLSCAASGFTFSSYAMHWVRQAPGKGLEWVAVISYDGSNKYYADSVKGRFTISRDNSKNTLYLQMNSLRAEDTAVYYCARFSGWPNNYYYYGMDVWGQGTTVTVSS
VL: DIQMTQSPSSMSVSVGDRVTITCHSSQDINSNIGWLQQKPGKSFKGLIYHGTNLDDGVPSRFSGSGSGTDYTLTISSLQPEDFATYYCVQYAQFPWTFGGGTKLEIKRTVAAPDVVMTQSPLSLPVTPGEPASISCRSSQSLLHSNGFNYVDWYLQKPGQSPHLLIYFGSYRASGVPDRFSGSGSGTDFTLKISRVEAEDVGVYYCMQALQTPPWTFGQGTKVEIRR
notes: DVD-Ig; HC L, LC S; variable parts only
For B3, the values for the EC50 with RON [1] and in the assay with EGFR [2] were 1.16 nM and 4.56 nM, respectively.

B4: DVD768 (bispecific antibody)
VH: EVQLVQSGGGLVKPGGSLRLSCAASGFTFSSYAMHWVRQAPGKGLEWVAVISYDGSNKYYADSVKGRFTISRDNSKNTLYLQMNSLRAEDTAVYYCARFSGWPNNYYYYGMDVWGQGTTVTVSSASTKGPSVFPLAPQVQLQESGPGLVKPSQTLSLTCTVSGYSISSDFAWNWIRQPPGKGLEWMGYISYSGNTRYQPSLKSRITISRDTSKNQFFLKLNSVTAADTATYYCVTAGRGFPYWGQGTLVTVSS
VL: DVVMTQSPLSLPVTPGEPASISCRSSQSLLHSNGFNYVDWYLQKPGQSPHLLIYFGSYRASGVPDRFSGSGSGTDFTLKISRVEAEDVGVYYCMQALQTPPWTFGQGTKVEIRRTVAAPSVFIFPPDIQMTQSPSSMSVSVGDRVTITCHSSQDINSNIGWLQQKPGKSFKGLIYHGTNLDDGVPSRFSGSGSGTDYTLTISSLQPEDFATYYCVQYAQFPWTFGGGTKLEIKR
notes: DVD-Ig; HC L, LC L; variable parts only
For B4, the EC50 in the assay with EGFR [3] stood at 20.7 nM; in the assay with RON [4], 0.18 nM.

Usually EC50 stands for the concentration needed to bring the measured effect to its halfway point. A high value points to lower potency in that assay.
